The text below walks through data of patent publication US20210340252A1 (WUXI BIOLOGICS IRELAND, published 2021).

One may read the koff as the rate constant with which the complex falls apart. What is called kon is the rate constant with which the complex forms. The EC50 is the concentration that produces a half-maximal response. In general, EC50 (read off the curve) refers to the concentration needed to bring the measured effect to its halfway point. By IC50 is commonly meant the concentration at which inhibition is half-maximal.

One assay addresses T1, hTIM-3.ECD.MBPHis (human, UniProt Q8TDQ0 22-202).
T1 construct: extracellular domain; Made in Expi293 cells; also called human TIM-3.ECD.MBPAVIHIS; not shown: C-terminal MBP / AVI / 6xHis tag
Description: SPR Biacore 8K, antibody captured on anti-human IgG Fc CM5 chip, hTIM-3.ECD.MBPHis as analyte, 1:1 fit. Background: Surface plasmon resonance follows binding to a sensor surface in real time, without labels.

A further assay deals with T2, CynoTIM-3.ECD.Fc (cynomolgus monkey, UniProt A0A2K5U3G7 22-195).
T2 construct: extracellular domain; also called Cynomolgus TIM-3, hFc tag; not shown: Fc tag
T2 sequence: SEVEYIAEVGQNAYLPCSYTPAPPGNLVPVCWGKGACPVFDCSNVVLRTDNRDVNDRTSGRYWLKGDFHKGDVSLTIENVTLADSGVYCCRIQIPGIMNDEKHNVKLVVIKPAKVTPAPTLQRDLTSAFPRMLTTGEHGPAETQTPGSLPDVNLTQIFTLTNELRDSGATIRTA
Description: SPR Biacore 8K, cynoTIM-3.ECD.Fc immobilised on CM5 chip, antibody as analyte (avidity), 1:1 fit.

The target in assay [1] is T3, cynomolgus monkey TIM-3, full length, on transfected cells (cynomolgus monkey, UniProt A0A2K5U3G7 22-294).
T3 construct: whole, on cells; cynoTIM-3-expressing transfectant cells; also called cynoTIM-3
T3 sequence: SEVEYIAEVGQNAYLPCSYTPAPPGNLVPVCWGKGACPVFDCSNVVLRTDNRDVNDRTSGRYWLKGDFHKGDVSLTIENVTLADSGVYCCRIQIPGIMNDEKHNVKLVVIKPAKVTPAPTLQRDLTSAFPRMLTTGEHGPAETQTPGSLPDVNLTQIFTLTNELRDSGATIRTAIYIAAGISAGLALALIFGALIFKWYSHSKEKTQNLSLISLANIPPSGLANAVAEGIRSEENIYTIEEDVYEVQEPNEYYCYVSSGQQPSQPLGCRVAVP
Description: flow cytometry on cynoTIM-3-expressing transfectant cells, PE goat anti-human IgG-Fc. Background: Flow cytometry measures light scatter and fluorescence of single cells or particles in a stream.

The target in assay [2] is T4, human TIM-3, full length, on cells (human, UniProt Q8TDQ0 22-301).
T4 construct: whole, on cells; also called hTIM-3; cell surface human TIM-3
Description: flow cytometry on hTIM-3-expressing transfectant cells, PE goat anti-human IgG-Fc.

Assay [3] deals with T4, human TIM-3, full length, on cells. In words: FACS binding titration on human TIM-3 transfected cells after incubation of the antibody in human serum.
In another assay the target is T5, mFc-tagged human TIM-3 (human, UniProt Q8TDQ0 22-202, limits assumed).
T5 construct: the assay text only says mFc-tagged human TIM-3; also called hTIM-3.ECD.mFc; not shown: mouse Fc tag at the C-terminus
In words: competition, flow cytometry: antibody pre-mixed with mFc-tagged human TIM-3, binding of TIM-3 to PtdSer on apoptotic Jurkat cells, PE anti-mouse IgG Fc; blockade of TIM-3 binding to PtdSer on apoptotic Jurkat cells.

In assay [4] the target is T4, human TIM-3, full length, on cells. Description: FACS on PHA-activated human CD4+ T cells (natural TIM-3), detection with PE goat anti-human IgG Fc, MFI.
The target of a further assay is T6, Human TIM-4, His tag (human, UniProt Q96H15 25-315, limits assumed).
T6 construct: Bought protein
T6 sequence (looked up): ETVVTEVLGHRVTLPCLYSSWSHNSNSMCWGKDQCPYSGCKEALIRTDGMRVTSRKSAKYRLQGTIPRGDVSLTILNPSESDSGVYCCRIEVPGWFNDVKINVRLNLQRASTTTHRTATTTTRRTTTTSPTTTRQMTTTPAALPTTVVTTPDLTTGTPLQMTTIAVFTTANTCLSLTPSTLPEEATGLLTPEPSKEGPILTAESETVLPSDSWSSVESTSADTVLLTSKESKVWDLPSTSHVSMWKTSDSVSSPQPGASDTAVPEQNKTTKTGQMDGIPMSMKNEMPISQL
Description: ELISA, plates coated with human TIM-4.

Another assay deals with T7, Human TIM-1, His tag (human, UniProt Q96D42 21-293, limits assumed).
T7 construct: Bought protein
T7 sequence (looked up): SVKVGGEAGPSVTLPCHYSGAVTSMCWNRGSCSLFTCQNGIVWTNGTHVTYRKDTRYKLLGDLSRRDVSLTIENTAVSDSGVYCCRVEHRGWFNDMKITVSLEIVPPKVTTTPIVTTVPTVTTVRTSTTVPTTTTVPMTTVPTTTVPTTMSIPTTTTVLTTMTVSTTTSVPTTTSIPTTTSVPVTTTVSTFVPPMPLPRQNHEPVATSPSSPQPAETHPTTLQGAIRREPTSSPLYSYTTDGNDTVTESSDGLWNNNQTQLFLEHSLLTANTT
Description: ELISA, plates coated with human TIM-1.

For assay [5], the target named is human TIM-3 protein (coated on ELISA plates) (human, UniProt Q8TDQ0 22-200, limits assumed). Description: competition ELISA on plate-coated human TIM-3 against biotinylated WBP340-BMK8, detection with SA-HRP. (ELISA stands for enzyme-linked immunosorbent assay.)

B1: W3405-2.61.21-uAb-hIgG4.SPK (V87E) (antibody, V domains shown)
VH: EVQLLEAGGGPVQPGGSLRLSCAAAGFTFSNYAMSWVRQAPGKGLEWVSSISDNGGTAYHADSVQGRFTISRDNSKSTLYLQMNSLRAEDTAVYYCAKDFGDSPGYWGQGTLVTVSS
VL: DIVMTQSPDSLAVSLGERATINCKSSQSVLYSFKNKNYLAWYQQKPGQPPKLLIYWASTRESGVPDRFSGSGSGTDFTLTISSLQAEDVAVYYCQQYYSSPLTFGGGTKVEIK
notes: Human IgG4 (S228P) heavy constant region and kappa light chain; also called mutant_3
In the assay with hTIM-3.ECD.MBPHis, B1 registered a Kd of 0.153 nM, an off-rate constant (koff) of 3.18e-05 s⁻¹ and a kon of 208000 M⁻¹ s⁻¹. In the assay with CynoTIM-3.ECD.Fc, this molecule came in with a Kd of 0.00452 nM, a koff of 7.49e-06 s⁻¹ and a kon of 1.66e+06 M⁻¹ s⁻¹.

B2: W3405-2.61.21-uAb-p1-hIgG4.SPK (antibody, V domains shown)
VH: EVQLLEAGGGPVQPGGSLRLSCAAAGFTFSNYAMSWVRQAPGKGLEWVSSISDQGGTAYHADSVQGRFTISRDNSKSTLYLQMNSLRAEDTAVYYCAKDFGDSPGYWGQGTLVTVSS
VL: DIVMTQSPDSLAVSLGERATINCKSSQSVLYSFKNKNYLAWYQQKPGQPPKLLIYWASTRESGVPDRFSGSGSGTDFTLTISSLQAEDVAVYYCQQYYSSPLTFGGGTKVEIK
notes: Fully human antibody; Constant region of human IgG4 (S228P) heavy chain and human kappa light chain; also called W3405 lead antibody; p1 variant (N→Q)
Take B2: the Kd in the assay with hTIM-3.ECD.MBPHis came out at 0.138 nM; with CynoTIM-3.ECD.Fc, 0.006 nM. Moreover, the dissociation rate constant (koff) in the assay with hTIM-3.ECD.MBPHis stood at 3.2e-05 s⁻¹; in the assay with CynoTIM-3.ECD.Fc, 1.73e-05 s⁻¹. Moreover, the on-rate (kon) is 232000 M⁻¹ s⁻¹ in the assay with hTIM-3.ECD.MBPHis and 2.89e+06 M⁻¹ s⁻¹ with CynoTIM-3.ECD.Fc. For the same molecule, the EC50 in [1] is 0.99 nM; in assay [2] it was 0.13 nM; in [4], 0.096 nM. The “EC50 (read off the curve)” value in [3] was approximately 0.4 nM. Further, the half-inhibitory concentration (IC50) in the assay with mFc-tagged human TIM-3 amounted to 20 nM. The binding result with Human TIM-4, His tag is listed as “no binding”; with Human TIM-1, His tag, “no binding”. Moreover, the “IC50 (read off the curve)” value in assay [5] is approximately 0.8 nM.
